The values that follow come from article PMC9860449.

Assay [1] concerns the target FUS^WT released from GST-TEV-FUS by TEV protease (UniProt P35637).
In assay [2] the target is FUS released from 6xHis-MBP-FUS by TEV protease (UniProt P35637).
The target of assay [3] is FUS^WT released from GST-TEV-FUS by TEV protease (UniProt P35637). The source holds these as a separate data set.

Take “Kapβ2 H1-H13 (residues 1–604) (from UniProt Q92973-2 1-604) (domain or fragment)”: in assay [1], the reduction of turbidity of preformed FUS fibrils after 80 min at the highest concentration of H1-H13 tested was found to be 50%. Further, in assay [2], the reduction of number and total area of preformed FUS:RNA droplets (1 μM FUS, 1 μM U40 RNA; 0.75 μM H1-H13, 2 h) was found to be 44%. In assay [3], the FUS fibrillization left (normalised turbidity at 395 nm; 3 μM FUS, TEV protease) at the highest concentration of H1-H13 tested amounted to 40%.

Take “Karyopherin-β2 (Kapβ2), full-length, wild type (from UniProt Q92973-2 1-890) (natural protein)”: the reduction of number and total area of preformed FUS:RNA droplets (1 μM FUS, 1 μM U40 RNA; 0.75 μM Kapβ2, 2 h) in assay [2] came to 100%.
